Experiment: soluble on expression in E. coli; label from the status in PepcDB or PDB records

Soluble on expression in E. coli, not soluble:
MGSDKIHHHHHHMSNKLTYIVASGDTYTSIVNKINQSTPLTVSQLADANPSIQANQLQIGQALDIPLSTDGLIPDDNPALLTPAAEFMGYWYPYSASCPKNATLSVALYGWGPQKVIEWGKQADVQSHLNGEKYLSFGGGSESGKFTEQALNEITTAITQGQIKGYDGIAYDVEVADANLGAQFANSFEAAKACGFKVLVTISHSAPYDVADKDQLMKSFFINPHIDILSPQLYSKGDESQNDYALTSGSSITWRDYASTKAAIVPSIVHASYYEAAKIYFKNQGVELSGYLQWK
MGSDKIHHHHHHMSNSDPIERFFRSGLKLPHLRILVSLADLGQVTRVAAAFHVTQPAISKQIAEIEDALGVAVVNRVGNALELTGIGQVIVSCGREVLRHIELAKRDVSALASGTAGHVRVGAVVTIPEPLIANSVQLFIRRAPSASLSFAESTLDRLIRMMDDGELDIALGRNRIAGANSAQSTLKQEILHREPFVFVAGAHHPLGDPDRPTTWADLRGCRWITPMHGSPAYATLVEALAVHDLTPDPGAVESSSLALNVALIRSGDFVSILPMSVARPQVMRGNMRVLPLPPLQPLGEIVAYWRLGSTTPAAQLFNACLKEVSSDLLGERIEAG
MGSDKIHHHHHHMSNVDRAEIAKFEALAHRWWDRESEFKPLHEINPLRVNWIDERVSLAGKKVLDVGCGGGILSEAMALRGATVTGIDMGEAPLAVAQLHQLESGVQVEYRQITAEALAEEMPEQFDVVTCLEMLEHVPDPSSVIRACYRMVKPGGQVFFSTINRNPKAYLLAIVGAEYILKMLPRGTHDFKKFIRPSELGAWSRDAGLQVKDIIGLTYNPLTKHYKLNSDVDVNYMIQTLREE
MGSDKIHHHHHHMSNVKTAEFKRPQLSLPHSADKLLLHSCCAPCSGEVMEAITASGIDYTIFFYNPNIHPQREYLIRKEENIRFAEQHNVPFIDADYDSDNWFERAKGMEWEPERGIRCTMCFDMRFERTALYAAENGFSVISSSLGISRWKNMQQINECGQNAAQKYPGVTYWDYNWRKGGGSARMIEISKREHFYQQEYCGCIYSLRDSNKHRKSQGRDIIRIGKLYYGDEAE
MGSDKIHHHHHHMSQFVVDSSFWSLFPDAKIGVLLLKDYKTPAQSPDELVKLLEESNGIAQKFLTEDTFSENEVIRTYRQAYQKFKTKKGARSSIEALLKRSTSDRPVTTISPLVDIYNAASLRFGLPCGAEDLDTFVGNLQLTVTEGGDEFYLIGDETNNPTLPGEVCYKDDKGAVCRCFNWRDGERTMITDETKNAFLVMELVNSDRVEDLENALDFISQQAETFLGVVPEKYLLDCDRPGIAL
MGSDKIHHHHHHMSQNVYQFIDLQRVDPPKKPLKIRKIEFVEIYEPFSEGQAKAQADRCLSCGNPYCEWKCPVHNYIPNWLKLANEGRIFEAAELSHQTNTLPEVCGRVCPQDRLCEGSCTLNDEFGAVTIGNIERYINDKAFEMGWRPDLSDVKPTGKTVAIIGAGPAGLACADVLTRNGVKAVVFDRHPEIGGLLTFGIPAFKLEKEVMTRRREIFTGMGIEFKLNTEVGRDVQLDDLLKEYDAVFLGVGTYQSMRGGLDNEDAPGVYDALPFLIANTKQIMGFGETADEPYVSMEGKRVVVLGGGDTAMDCVRTSVRQNAAHVICAYRRDEENMPGSKREVKNAREEGVEFQFNVQPLGVEVNANGKVCGVKMARTEMGQPDAKGRRRAEIVPGSEHVVPADAVVMAFGFRPHSMEWLAKHSVEMDSQGRIIAPEGSENAFQTSNPKIFAGGDIVRGSDLVVTAIAEGRKAADGILNYLEV
MGSDKIHHHHHHMSQSIPEPHWHQTPQEFLASWSTSRGNLRRFFEEHALPPIDARTQREAGEAAAELAASELFGIKLDEYTSGLDSVSGSFEAAGAQHVTTANPEIPQDIGAAAFFDIDNTLIQGSSLVVFAMGLAKKKYFKLNEILPVAWKQIKFRVTGNENAHDVAEGRQQALEFIKGRRVDELVALCEEIVDNNMSEKLWPGTKQLADQHIADGQQVWLVSATPVQLAQALAKRLGFTGALGTVAEVKDGVFTGRLVGDILHGPGKLHAVAALATIERLDLSRCTAYSDSINDVPMLSMVGTAVAINPDRPLAKVAKQHGWAVRDYRSLRKAIRTFGIPALVTAAFSFGGWKAWRR
MGSDKIHHHHHHMSREILRVENLVKHFPIRAGVFKRIVGWVKAVDGVSFSINEGETFGLVGESGCGKTTIGMTLLRLYEPTSGRIIVDNEDTTYYFMPRSKAKKYIKQTYLSRFVNMKESDVEKLEGVDREYARIFFEEAKGSPKKFMSILLDDLPEKRKKFRREMQIVFQDPYSSLNPRLRVKSIVGEGIVTHRIARGKEVEKRIKEILEDVGIPSAYVYRFPHEFSGGQRQRIGIARALALEPKLVVADEAVAALDVSIRSQIINLMEDLQREHKLTYIFISHDLAVVKHISDRIGVMYLGKMVELAPKKDLFEKPLHPYTVALMSAIPVPDPTKKRERIILKGDVPSPINPPSGCRFHTRCPIAKEICSKEEPAFREVEEGHFVACHFPGELR
MGSDKIHHHHHHMSRHQNIPALSDVSSTNFSNIRLIATDMDGTLTRRGKFTTPLLQALEDLAAVDIKVLIVTGRSAGWVSGLSSLMPVAGAIAENGGLYFPPGNHKPVVLTPVSDLAKHRQHLATTFENLQTKFPQIQESADNRFRVTDWTFDVADLNQDELQTLDSLCQQMGWGFTYSNVQCHIKPQGQDKAVGLLQVLREYLPQYSPEQIVTVGDSPNDESLFERRYFPVSVGVANVLEYMNQLKYHPAYITNAAEGEGFCELSSYILKSLHIPS
MGSDKIHHHHHHMSRISEEIENLTVELVKVPSVNGTEGEGNIGNKILSYLKEIDYFKEHEEYAFRIPLKNDKLGRGNVFALIRGEKGQSNRTIILHGHMDTVAVDDYGSLKDYAFDPDILQKKLKEIELPEEVREDLDSGDWMFGRGASDMKSGDAVHLVVLKELSKRVKDISGNILFMSNPVEENEHNGIREALDTLEKLKEKYSLEYTLAINNDYICPMYKGDNTRYLYTGTVGKLLPAFYFVGKETHVGQCFEGINADVIASEVINEIDLNVDLCDEYNGEYTLPPSVLKFKDLKESYNVQTPFSSFAYFNYTVHSESPKQASEKLKKAAKRAFERVIKRNDDRYKKYCEMTNQKYEPLNFQAKVITYTQLYTLAKARFSGDLDKEIKSYEQRLVDNYVDIREISLRVVDKVFNIWGEKKPCIVMFFAPPYCPHNTLNVKNEKEKEIINKIKECAQQLKEKEGINEEFKVMQFFPSLSDSSYLKIDDDSEGIESLTSNFPGWDRVYGVPVQKIKDLNIPAINYGCYGKDAHKWTERVYKPYSFEVLPKLIMLTIEKFL
MGSDKIHHHHHHMSRLLRSPQTGAGKLFSAASSENFSKQNLIDAVIKEARRKVMEAEFQKKFMQSWSRYFPGAELPIGFYYTDSAETKFMAKPPKRHRCIIGDLAKVRKGKPQCFDNNAIGCFGGKRYLGFESKLTPDFEYFLSCGIPGKIEGERYKKSPELVKEHLKHQQPLKAPGNYIIFKRWDQMENADIPSVVIFFAAPDVLSGLFTLANFDETHPHGVIAPFGAGCASIVDYPYKELNSPDPRSVLGMFDVSARPCVPSNVLTFAVPWPKFVRMVGNMDESFLITRSWNKVKTRIKKEHAKSNDK
MGSDKIHHHHHHMSRPRIHPLQALFGAHEHRPDLPVCDHYAGVEPRMRKALALQADMADTALFDVTLDLEDGAPVGGEPEHARLAAELVSSAANRHGRVGVRVHPYPHPSFADDVRSLLAGAGERLAYLMIPKAQGVEELRDAIAAIEATRREQGLARAVPVHALVETHGALRDVQAIAALPAIESLSFGLMDFVSAHHGAIPAFGMSLAGQFSHPLVLRAKLEISAACHAAGKLPSHCVVTEYSDTQAIAQAATRASRELGYARMWSIHPNQIRPIVEAFAPVPAEIEAALDILLAAQAADWAPIAHRGLLQDRASYRYHWHVLERAARTGRSLPDTARSAFFATAAA
MGSDKIHHHHHHMSSNRCDDCHPAGIDDANRQPRLETAAKGGGEPAPSTANLPDAAHLPGGRIRIGISSCLLGNPVRFDGGHKFDPWVVNVLGAYLDFVPVCPEVECGMGIPREALRLVGDPSAPRLVTVKHGEDWTDRMRAWAERRVAELEGEGLCGYIFKRASPSSGMERVKVYPEFDPATGKSGGVPVQKGVGMFARAFIERFPLLPVEEEGRLNDPDLRENFIERLFVMRRWRQLLDDGLDTGGLVAFHTRHKLLMLAHSPQHYRTMGKLVAQAATYPRDELREAYQRLLMEGLRLRATPAKHVNVLQHIMGYFRKQLTPDEKQEMLEQIDLYRRALVPLVVPVTLLNHYVRKYGEKYLAGQFYLNPHPVELKLRNHV
MGSDKIHHHHHHMSTDNLALNIREKAMEAGFDHCGIVKIDALADYVSRLEERAAAFPRSKPFYDFLSKLGTPQAAHEWGKSVIVCAMRYGKYRIPNRADRHIGKLYLYGGYRQPAYSQEYAGMAGFEAFLAAEGIRFAKDVFGIAPARLCAAQANLGVIRNNNFLYTEHGSWVWLETWLIDRELEYRESPNTLPSCPPGCSKCIDACPTGALKAPFLTDMGTCIARLTYSPSGEAPEPLRESMGTWLYGCDECQNACPMNKGRWEEKEEYPRLEELSRHISLEKIAEMDEHAVSDILSPMFWIIGKEKLWMWKCNVIRAMVNGKDPGHHSTIRKLCDDGNENVRRTAEWACRQLGI
MGSDKIHHHHHHMSTKHAIAAAHFLENKENEAWHDHTLWMVRTKRDKMSHSLPEWERLRELASEIKLYSNSHLDTLLEEFEKNAIANGAIVHWAKDAEEHNEIVLRILRQHDARNLIKSKSMLTEECHMNEFLMSKGIDVVESDLGERILQLMHLAPSHIVMPAIHIKREQISEMMEREMGTEKGNIDPTYLTHAARKNLREKFLHADVAMTGANFAVASTGEIVVCTNEGNADMGTSFPKVHIATMGMEKIVPNLEALGVFTRLLARSGTGQPITSYTSHYRRPPEGQEFHIIIVDNGRSDILAKPDHIRTLNCIRCGECMNTCPVYRRSGGYSYTYFIPGPIGINLGMLRNPEEYSDNVSACSLCLSCSNVCPVKIDLGEQIYRWRQDLDKIGKASKEKKVMSFGMKFLMERSGLFNTALKFAPVVNHLPRFMVYNGLNAWGKGRELPAFAKESFNDMWKNNKVR
MGSDKIHHHHHHMSTPCILCVAITGSLPTKDNNPAVPITISEQIESTHEAFEAGATICHAHVRNDDQTPSSDPEKFERLKEGLEKHCPGMIIQFSTGGRSGAGKARGGMLPLAPDMASLSVGSNNFPTRVYENPPDLVDWLAGEMRTHQVTPEVEAFDLSHILNAIALHKSGALYGKLYVQFVMGVKNAMPADKEVFDFYVDLVKRRAPDANWCAAGIGANQLVVNEWAIAAGGHTRAGLEDNVRLDRNTLAPSNAALIRRAAELCEKYERPVATWQQAREILDVPLRA
MGSDKIHHHHHHMSTVDPVEQLLANGLKNLWYPICPVGFIEDKPVSLRRLGYKLAVWRDTDGTLHALEDHCPHRGAPLSRGVNLGDRLQCPYHGVEVRCDGVTARVPGSPGCKLEGSQATRFFHITEAAGAVWLYNSAGNVEEAPPLVLPEQLTDPEFSHFLCYTEWRGDYRYVLDNVMDPMHGTYLHKQSHSMSEGESQARFVTRDTDTGFIFEKDGQRGVNFDWTEWADTGMHWMRLEIPYPKTGGPGGNFHIVGSYTPIARDLCAVFHWRCRPLTGWQRDTWRFLYRNRLEARHWAVLEQDREMLEFMEPDANQRENLYQHDLGLVRLRRHLKNLAKAQLELIEARQL

— the DeepSol protein solubility set
